Data set [1] has as its system U251 human glioma cells. In words: Toxicity to glioma cells, cell counting. It is filed as cell-based. The following applies: 4 hours, counted after four days. The protocol:
FIGS. 20 (A)-(B) illustrates HerDox is toxic to glioma cells. FIG. 20 (A) depicts HER immunofluorescence on U251 human glioma cells. Images were captured using laser scanning fluorescence confocal microscopy. FIG. 20 (B) depicts a graph of HerDox vs. Dox toxicity to U251 cells. Significant differences were determined by 2-tailed tests.
U251 cells growing in dishes were incubated with either HerDox or Dox (at either 0.5 uM or 1 uM) in the culture medium for 4 hours at 37° C., 5% C02, after which fresh complete medium was added to increase the final culture volume approximately four-fold, and the cells maintained at 37° C., 5% C02 for four days. Cells were trypsinized and counted on the last day.

The nature of data set [2]: Stability in mouse whole blood. It is filed as in vitro ADME. The following applies: 0.12 mg/mL Dox conc, 37° C. up to 1 h, 0.5 mM EDTA. The protocol: FIG. 13 illustrates stability in mouse whole blood. Freshly collected whole blood was processed by ultrafiltration through 10K MW cutoff membranes after up to 1 h incubation with HerDox or Dox at 37° C. As 0.5 mM EDTA was used as an anticoagulant, HerDox in EDTA alone (-blood) was processed in parallel. Bars represent fluorescence of retained (retentates) or released (filtrates) Dox as a percentage of the total fluorescence of each sample. Scale of Y-axis is adjusted to show presence of filtrate samples. N=3 per treatment.
To assess the feasibility of measuring in vivo stability, the inventors incubated HerDox (at 0.12 mg/mL final Dox conc) or free Dox at equivalent concentration in freshly collected whole blood from mice and incubated the mixtures at 37° C. up to 1 h. As the anticoagulant, 0.5 mM EDTA, was present in the blood collection, parallel samples were incubated at 37° C. in EDTA alone. Samples representing input HerDox (before incubation in blood) were incubated at 37° C. in HEPES-buffered saline. All samples were then centrifuged through 10K MW cutoff filters and Dox fluorescence measured in retentates and filtrates (SpectraMax M2 from Molecular Devices). […] Likewise, there is no appreciable loss of Dox from HerDox retentates from samples incubated in blood compared to those incubated in saline or EDTA alone (FIG. 13).

The subject of data set [3] is MDA-MB-435 (non-GFP, HER2+) cells. In words: Targeting in a mixed cell culture. It is filed as cell-based. Particulars: HerDox containing 0.5 uM Dox, day 2. The protocol:
(§1) FIGS. 9 (A)-(C) illustrates targeting in a mixed cell culture. As illustrated in FIG. 10 (A), equal numbers of MDA-MB-435 and GFP(+) MDA-MB-231 cells were treated with Dox alone (0.5 uM), Her-Dox (containing 0.5 uM Dox), or HerPBK10 (1.2 ug/well, equivalent to HerPBK10 in HerDox). Wells were assayed for GFP fluorescence (to determine relative MDA-MB-231 number) and crystal violet staining (to determine total cell number). As illustrated in FIG. 9 (B), cell survival was determined by calculating the relative doubling time (DT) of experimental (exp) cells normalized by control (con) cells based on the crystal violet stains (total cells) and GFP fluorescence (MDA-MB-231 cells). The DT of MDA-MB-435 was determined by subtracting the DT of MDA-MB-231 from the total cell DT. Relative survival is shown for Day 2 of treatment. As illustrated in FIG. 9 (C), there is stability in cell culture. Aliquots of culture media containing HerDox (after incubation for the indicated times at 37° C.) were electrophoresed on a 2% agarose gel. HerDox incubated at 37° C. in HEPES-buffered saline, lacking serum, was processed in parallel. Dox fluorescence was visualized by UV excitation. Free Dox (Dox alone) is not retained in the gel whereas Dox incorporated in HerDox is. […]

Data set [4] concerns GFP(+) MDA-MB-231 (HER2−) cells. In words: Targeting in a mixed cell culture. It is filed as cell-based. Particulars: HerDox containing 0.5 uM Dox, day 2. The protocol: as §1

B1: HerDox: non-covalent complex of HerPBK10, a small double-stranded nucleic acid and intercalated Dox (conjugate)
chain: LPPRLKEMKSQESAAGSKLVLRCETSSEYSSLRFKWFKNGNELNRKNKPQNIKIQKKPGKSELRINKASLADSGEYMCKVISKLGNDSASANITIVESNEIITGMPASTEGAYVSSESPIRISVSTEGANTSSSTSTSTTGTSHLVKCAEKEKTFCVNGGECFMVKDLSNPSRYLCKCQPGFTGARCTENVPMKVQNQEKAEELYMRRAAMYEEGPPPSYESVVSAAPVAAALGSPFDAPLDPPFVPPRYLRPTGGRNSIRYSELAPLFDTTRVYLVDNKSTDVASLNYQNDHSNFLTTVIQNNDYSPGEASTQTINLDDRSHWGGDLKTILHTNMPNVNEFMFTNKFKARVMVSRLPTKDNQVELKYEWVEFTLPEGNYSETMTIDLMNNAIVEHYLKVGRQNGVLESDIGVKFDTRNFRLGFDPVTGLVMPGVYTNEAFHPDIILLPGCGVDFTHSRLSNLLGIRKRQPFQEGFRITYDDLEGGNIPALLDVDAYQASLKDDTEQGGGGAGGSNSSGSGAEENSNAAAAAMQPVEDMNDHAIRGDTFATRAEEKRAEAEAAAEAAAPAAQPEVEKPQKKPVIKPLTEDSKKRSYNLISNDSTFTQYRSWYLAYNYGDPQTGIRSWTLLCTPDVTCGSEQVYWSLPDMMQDPVTFRSTRQISNFPVVGAELLPVHSKSFYNDQAVYSQLIRQFTSLTHVFNRFPENQILARPPAPTITTVSENVPALTDHGTLPLRNSIGGVQRVTITDARRRTCPYVYKALGIVSPRVLSSRTFKKKKKKKKKK
modifications: left off: small tags and cut ends
notes: non-covalent complex of HerPBK10, a small double-stranded nucleic acid and intercalated Dox
As for B1, the “toxicity relative to the equivalent concentration of Dox” value in data set [1] (0.5 uM or 1 uM) is listed as 8-10 times. Moreover, in data set [1], the “less HerDox eliciting the same toxicity as Dox” value was 10 ×. The “loss of Dox from the conjugate in whole blood” value in data set [2] is “no detectable loss of Dox”. Moreover, the “non-GFP (HER2+) cell proliferation in mixed culture” value in data set [3] is listed as “nearly completely reduced”. For the same molecule, in data set [4], the “GFP (HER2−) cell growth in mixed culture” value is recorded as “not altered”.
